From PMC7249120, “Hybrid Imaging Agents for Pretargeting Applications Based on Fusarinine C—Proof of Concept” (Molecules, 2020)

Legend:
[1] = parameters: species or system BALB/c mice; conditions: mouse, in vivo, iv
Method: Biodistribution studies of the FSC-based hybrid imaging agents radiolabeled with Gallium-68 were performed using healthy five-week-old female BALB/c mice (Charles River Laboratories, Sulzfeld, Germany). Animals (n = 3) were injected via lateral tail vein with 1 nmol of conjugate and a total activity of approximately 6 MBq. Mice were sacrificed by cervical dislocation 1 h p.i. followed by collection of the main organs and tissue, subsequent gamma counter measurement and calculation of the percentage of injected activity per gram tissue (% IA/g).

[2] = system: CD20-expressing Raji cells pre-treated with Rituximab(RTX)–TCO; assay: Cell binding studies on Raji cells pre-treated with RTX-TCO or non-modified RTX; type: cell-based, human; parameters: concentration or dose not given beside the values; conditions: radioligand 30 min, 37 °C
Method: CD20-expressing Raji cells ([…] lymphoblast-like B-lymphocyte cells) were obtained from the American Type Culture Collection (ATCC, Manassas, Virginia, USA). The cells were cultured in tissue culture flasks (Cellstar; Greiner Bio-One, Kremsmuenster, Austria) using RPMI-1640 medium with 10% (v/v) fetal bovine serum (FBS) as supplement (Invitrogen Corporation, Lofer, Austria). For cell binding studies 10 × 10^6 cells were washed twice with fresh medium, diluted with PBS to a final concentration of 1 × 10^6 cells per mL and 500 µL of cell suspension was transferred to Eppendorf tubes. Hereafter, 50 µL of RTX–TCO or non-modified RTX as negative control (both 0.5 µM) was added and the cell suspension was maintained at 37 °C under gentle shaking. After 1 h the suspension was centrifuged (2 min, 11 × 10^3 rcf), the supernatant was discarded and the cells were washed twice with 600 µL PBS and finally resuspended with 450 µL PBS. Subsequently 50 µL of the radioligand solution (22 nM) was added and the suspension was incubated for 30 min at 37 °C. After centrifugation and two washing steps with 600 µL PBS, the cells were resuspended in 500 µL PBS and transferred to polypropylene vials for gamma counter measurement followed by calculation of cell-associated activity in comparison to the total activity applied (n = 3, six replicates).

[3] = type: physicochemical; conditions: pH 7.4
Method: To determine the hydrophilicity the distribution of the ^68Ga-labeled conjugates between an organic (octanol) and aqueous (PBS) layer was assessed. Aliquots (50 µL) of the ^68Ga-labeled tracers (~5 µM) were diluted in 1 mL of octanol/PBS (1:1, v/v) and the mixture was vortexed at 1400 rpm (MS 3 basic vortexer, IKA, Staufen, Germany) for 15 min at RT. Subsequently the mixture was centrifuged for 2 min at 4500 rpm followed by measuring aliquots (50 µL) of both layers in the gamma counter (Wizard^2 3”, Perkin Elmer, Waltham, MA, USA). LogD was calculated using Microsoft Excel (n = 3, six replicates).

[4] = system: TCO-alendronate pre-treated mice (bone); assay: PET/CT and optical imaging in the alendronate-TCO bone pretargeting model; type: in vivo, BALB/c mice; conditions: TCO-alendronate pre-treated mice vs alendronate alone; PET/CT 1 h p.i., OI of excised bones 24 h p.i.
Method: For the proof of concept of pretargeting in vivo a model described by Yazdani et al. was applied, based on TCO-modified alendronate for bone targeting. For preparation of TCO–alendronate, briefly, 20 mg sodium alendronate trihydrate (Sigma Aldrich) was dissolved in 400 µL 0.1N sodium-bicarbonate solution pH 8.5. Then 0.6 mL TCO–NHS ester (Click chemistry tools, Scottsdale, AZ, USA), 20 mg/mL in DMSO, were slowly added to the solution and stirred overnight in the dark, followed by freeze drying. As a control the same preparation was prepared, replacing TCO–NHS solution by the same volume of DMSO. For injection in mice the residue was dissolved in water and adjusted to pH 7 (30 mM).
MicroPET/CT images were acquired with an Albira PET/SPECT/CT small animal imaging system (Bruker Biospin Corporation, Woodbridge, CT, USA). […] After reconstruction, acquired data was viewed and analyzed with PMOD software (PMOD Technologies Ltd., Zurich, Switzerland).
Near-infrared in vivo fluorescence imaging was performed with an In-Vivo MS FX PRO small animal imaging system (Bruker Biospin Corporation, Woodbridge, CT, USA) after the PET/CT investigation. […] An appropriate filter set (λex = 710 nm and λem = 790 nm) was used for acquiring the fluorescence of the IRDye800CW-conjugates ex vivo. […] Acquired images were analyzed using Bruker MI SE software (Bruker Biospin Corporation, Woodbridge, CT, USA).

Row | SMILES | Organ activities compared with SulfoCy5 and IRDye800CW counterparts [1] | Cell binding (cell-associated activity of total activity applied) [2] [%] | logD [3] | Bone uptake in PET/CT and optical imaging [4]
1 | CC(=O)N[C@H]1CCCN(O)C(=O)/C=C(/C)CCOC(=O)[C@@H](NC(=O)CCOCCOCCOCCOCCOCCC(=O)NCc2ccc(-c3nncnn3)cc2)CCCN(O)C(=O)/C=C(/C)CCOC(=O)[C@@H](NC(=O)CCCCC[N+]2=C(/C=C/C3=CC(=C/C=C4/N(C)c5ccc(S(=O)(=O)O)cc5C4(C)C)/CCC3)C(C)(C)c3cc(S(=O)(=O)[O-])ccc32)CCCN(O)C(=O)/C=C(/C)CCOC1=O [SulfoCy7-MAFC-PEG5-Tz] | higher activities in all organs | 4.12 ± 0.88 | -1.92 ± 0.05 | –
2 | CC(=O)N[C@H]1CCCN(O)C(=O)/C=C(/C)CCOC(=O)[C@@H](NC(=O)CCOCCOCCOCCOCCOCCC(=O)NCc2ccc(-c3nncnn3)cc2)CCCN(O)C(=O)/C=C(/C)CCOC(=O)[C@@H](NC(=O)CCCCC[N+]2=C(/C=C/C=C/C=C3/N(C)c4ccc(S(=O)(=O)O)cc4C3(C)C)C(C)(C)c3cc(S(=O)(=O)[O-])ccc32)CCCN(O)C(=O)/C=C(/C)CCOC1=O [SulfoCy5-MAFC-PEG5-Tz] | – | 3.09 ± 0.58 | -2.85 ± 0.08 | –
3 | C/C1=C/C(=O)N(O)CCC[C@H](NC(=O)CCOCCOCCOCCOCCOCCC(=O)NCc2ccc(-c3nncnn3)cc2)C(=O)OCC/C(C)=C\C(=O)N(O)CCC[C@H](NC(=O)CCOCCOCCOCCOCCOCCC(=O)NCc2ccc(-c3nncnn3)cc2)C(=O)OCC/C(C)=C\C(=O)N(O)CCC[C@H](NC(=O)CCCCC[N+]2=C(/C=C/C3=C(Oc4ccc(S(=O)(=O)O)cc4)C(=C/C=C4/N(CCCCS(=O)(=O)O)c5ccc(S(=O)(=O)O)cc5C4(C)C)/CCC3)C(C)(C)c3cc(S(=O)(=O)[O-])ccc32)C(=O)OCC1 [IRDye800CW-FSC-(PEG5-Tz)2] | – | 4.59 ± 1.45 | -2.46 ± 0.09 | high accumulation in joints and spine
4 | C/C1=C/C(=O)N(O)CCC[C@H](NC(=O)CCOCCOCCOCCOCCOCCC(=O)NCc2ccc(-c3nncnn3)cc2)C(=O)OCC/C(C)=C\C(=O)N(O)CCC[C@H](NC(=O)CCOCCOCCOCCOCCOCCC(=O)NCc2ccc(-c3nncnn3)cc2)C(=O)OCC/C(C)=C\C(=O)N(O)CCC[C@H](NC(=O)CCCCC[N+]2=C(/C=C/C=C/C=C3/N(C)c4ccc(S(=O)(=O)O)cc4C3(C)C)C(C)(C)c3cc(S(=O)(=O)[O-])ccc32)C(=O)OCC1 [SulfoCy5-FSC-(PEG5-Tz)2] | – | 5.91 ± 1.62 | -2.29 ± 0.1 | –
5 | CC(=O)N[C@H]1CCCN(O)C(=O)/C=C(/C)CCOC(=O)[C@@H](NC(=O)CCOCCOCCOCCOCCOCCC(=O)NCc2ccc(-c3nncnn3)cc2)CCCN(O)C(=O)/C=C(/C)CCOC(=O)[C@@H](NC(=O)CCCCC[N+]2=C(/C=C/C3=C(Oc4ccc(S(=O)(=O)O)cc4)C(=C/C=C4/N(CCCCS(=O)(=O)O)c5ccc(S(=O)(=O)O)cc5C4(C)C)/CCC3)C(C)(C)c3cc(S(=O)(=O)[O-])ccc32)CCCN(O)C(=O)/C=C(/C)CCOC1=O [IRDye800CW-MAFC-PEG5-Tz] | – | 2.88 ± 0.53 | -2.4 ± 0.05 | –
